The text below walks through data of paper PMC9603813, “Genome-Wide Analysis Reveals that PhoP Regulates Pathogenicity in Riemerella anatipestifer”.

Conditions in all cases: protein: recombinant; tags: His6 (pET-28a); chain copies: 2; label: 5' biotin on strand 1; blunt
The target in series [1] is T1, His6-PhoP (Riemerella anatipestifer RA-YM, UniProt E4TAE7 2-228).
T1 sequence: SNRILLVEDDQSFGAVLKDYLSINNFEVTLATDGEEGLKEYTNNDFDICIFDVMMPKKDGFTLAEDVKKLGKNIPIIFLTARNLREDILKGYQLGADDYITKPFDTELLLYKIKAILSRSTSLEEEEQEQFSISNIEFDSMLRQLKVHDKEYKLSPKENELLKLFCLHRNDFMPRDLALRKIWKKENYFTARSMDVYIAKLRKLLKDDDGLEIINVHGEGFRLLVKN
In words: EMSA; unphosphorylated.

For series [2], the target named is T1, His6-PhoP. In words: EMSA; phosphorylated by acetyl phosphate.
Series [3] addresses T1, His6-PhoP. Put plainly: EMSA. On the technique in general: A gel shift assay detects complexes by their altered migration in electrophoresis.
Another series concerns the target T2, His6-PhoP-DBD (Riemerella anatipestifer RA-YM, UniProt E4TAE7 130-228).
T2 sequence: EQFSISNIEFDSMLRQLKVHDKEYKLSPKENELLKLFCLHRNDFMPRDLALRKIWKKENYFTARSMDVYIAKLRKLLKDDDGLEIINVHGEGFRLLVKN
In words: EMSA.

B1: KYF39_00905 (transporter) probe (dsDNA)
DNA 1: CAAAAAATATTTCATTAACAGAATAGACAATCATA
DNA 2: TATGATTGTCTATTCTGTTAATGAAATATTTTTTG
On to B1, for which the Kd came to 39.2 nM in the series with His6-PhoP [1] and 39.5 nM with His6-PhoP [2].

B2: KYF39_07405 (OMPbB) probe (dsDNA)
DNA 1: ATAAAGTGGCAAATTTAACTTTAATAATTAAAAGA
DNA 2: TCTTTTAATTATTAAAGTTAAATTTGCCACTTTAT
B2: the binding result in the series with His6-PhoP [3] is “binds”.

B3: KYF39_06865 motif probe (dsDNA)
DNA 1: CGTTAAAAAATAAAGCGAGGTTTTGTTGTTTTAAA
DNA 2: TTTAAAACAACAAAACCTCGCTTTATTTTTTAACG
As for B3, the binding result with His6-PhoP [3] is recorded as “binds”.

B4: KYF39_00915 (transposase) probe (dsDNA)
DNA 1: TGAAAATTTCAAATTTAACTAAAGCTTATAGCAAT
DNA 2: ATTGCTATAAGCTTTAGTTAAATTTGAAATTTTCA
Regarding B4, the figures for the Kd with His6-PhoP [1] and with His6-PhoP [2] were 29.8 nM and 33.9 nM, respectively.

B5: dedA motif probe (dsDNA)
DNA 1: ATCTATAAAGAGATTTAACAAATTTTATAATTCTA
DNA 2: TAGAATTATAAAATTTGTTAAATCTCTTTATAGAT
Consider B5, for which the binding result in the series with His6-PhoP [3] is “binds”.

B6: phoPR motif probe (dsDNA)
DNA 1: AAACTCATAATAATCTGTTAAAAAACTCGTTTTTA
DNA 2: TAAAAACGAGTTTTTTAACAGATTATTATGAGTTT
For the molecule B6, the binding result is “no binding” in the series with His6-PhoP-DBD and “binds” with His6-PhoP [3].

In general, Kd refers to the free concentration of one partner at which half of the binding sites on the other are occupied at equilibrium, for simple one-to-one binding.
